# Assay results: IntAct's records for PubMed 12897162
# B1: Serine/threonine-protein kinase cds1 (Schizosaccharomyces pombe (strain ATCC 38366 / 972)), Q09170 (parent)
# chain: MEEPEEATQATQEAPLHVSQNIAKQVVNNENVFMKLVMTRMLDGKTEVIPLTTDVHNGFWRFGRHKSCEVVLNGPRVSNFHFEIYQGHRNDSDESENVVFLHDHSSNGTFLNFERLAKNSRTILSNGDEIRIGLGVPKDEISFLCQVPVKHSRDSQKNMIKSENSHYEIIRTLGSGTFAVVKLAVEVNSGKWYAIKIINKRKILLTSSEKRATEMFQREIDILKSLHHPGVVQCHEIFENDDELFIVMEYVEGGDLMDFLIANGSIDEQDCKPLLKQLLETLLHLHKQGVTHRDIKPENILITNDFHLKISDFGLAKVIHGTGTFLETFCGTMGYLAPEVLKSKNVNLDGGYDDKVDIWSLGCVLYVMLTASIPFASSSQAKCIELISKGAYPIEPLLENEISEEGIDLINRMLEINPEKRISESEALQHPWFYTVSTHEHRTPPSSSEHEATEQLNSSS
# partner: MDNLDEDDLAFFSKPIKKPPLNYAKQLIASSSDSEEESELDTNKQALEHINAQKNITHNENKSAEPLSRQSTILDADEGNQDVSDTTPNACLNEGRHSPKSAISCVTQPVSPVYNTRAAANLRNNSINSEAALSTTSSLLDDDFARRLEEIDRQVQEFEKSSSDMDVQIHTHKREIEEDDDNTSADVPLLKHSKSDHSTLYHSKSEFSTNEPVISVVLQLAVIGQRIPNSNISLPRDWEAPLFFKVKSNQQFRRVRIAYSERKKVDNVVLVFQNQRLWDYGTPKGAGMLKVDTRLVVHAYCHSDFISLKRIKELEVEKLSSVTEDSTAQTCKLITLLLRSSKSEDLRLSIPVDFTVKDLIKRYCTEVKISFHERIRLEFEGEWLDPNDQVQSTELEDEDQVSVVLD
# B2: DNA repair protein rad60 (Schizosaccharomyces pombe (strain ATCC 38366 / 972)), Q9USX3 (parent)
# chain: B1 partner
# partner: B1 chain
# Variants of: B1
# Conditions: with rad60_schpo rad60, Q9USX3
row,Variant,effect of a mutation on the interaction
1,MEEPEEATQATQEAPLHVSQNIAKQVVNNENVFMKLVMTRMLDGKTEVIPLTTDVHNGFWRFGRHKSCEVVLNGPRVANFAFEIYQGHRNDSDESENVVFLHDHSSNGTFLNFERLAKNSRTILSNGDEIRIGLGVPKDEISFLCQVPVKHSRDSQKNMIKSENSHYEIIRTLGSGTFAVVKLAVEVNSGKWYAIKIINKRKILLTSSEKRATEMFQREIDILKSLHHPGVVQCHEIFENDDELFIVMEYVEGGDLMDFLIANGSIDEQDCKPLLKQLLETLLHLHKQGVTHRDIKPENILITNDFHLKISDFGLAKVIHGTGTFLETFCGTMGYLAPEVLKSKNVNLDGGYDDKVDIWSLGCVLYVMLTASIPFASSSQAKCIELISKGAYPIEPLLENEISEEGIDLINRMLEINPEKRISESEALQHPWFYTVSTHEHRTPPSSSEHEATEQLNSSS [S78A;H81A],disrupting interaction

# Variants of: B2
# Conditions: with rad53_schpo cds1, Q09170
row,Variant,effect of a mutation on the interaction
1,MDNLDEDDLAFFSKPIKKPPLNYAKQLIASSSDSEEESELDTNKQALEHINAQKNITHNENKSAEPLSRQSAILDADEGNQDVSDTTPNACLNEGRHSPKSAISCVTQPVSPVYNTRAAANLRNNSINSEAALSTTSSLLDDDFARRLEEIDRQVQEFEKSSSDMDVQIHTHKREIEEDDDNTSADVPLLKHSKSDHSTLYHSKSEFSTNEPVISVVLQLAVIGQRIPNSNSSLPRDWEAPLFFKVKSNRQFRRVRIAYSERKKVDNVVLVFQNQRLWDYGTPKGAGMLKVDTRLVVHAYCHSDFISLKRINELEVEKLSSVTEDSTAQTCKLITLLLRSSKSEDLRLSIPVDFTVKDLIKRYCTEVKISFHERIRLEFEGEWLDPNDQVQSTELEDEDQVSVVLD [T72A;I232S;Q250R;K312N],disrupting interaction
